Laboratory results as given in patent US20180195054A1 (Stanford University, published 2018).
Numbering of substitutions follows the chain as printed. Names may count otherwise.

Assays:
[1] = target: human CD47 on the surface of cancer cells (Raji, Jurkat, DLD-1) (human) (UniProt Q08722); assay: flow cytometry on Jurkat cells, competition with Alexa Fluor 647 wild-type SIRPα tetramer (50 nM per paragraph 133)
[2] = target: biotinylated CD47 IgSF domain (human CD47 residues 19-135 / residues 1-117, C15G) (human) (UniProt Q08722); assay: SPR (Biacore T100, 25 C), biotinylated CD47 captured on SA chip, SIRPα variant in solution, 1:1 Langmuir model
[3] = target: human CD47 on the surface of cancer cells (Raji, Jurkat, DLD-1) (human) (UniProt Q08722); assay: flow cytometry on Raji cells, competition with 100 nM Alexa Fluor 647 WT SIRPα tetramer
[4] = target: T1, biotinylated CD47 IgSF domain (human CD47 residues 19-135 / residues 1-117, C15G) (human, UniProt Q08722 19-135, biotinylated with BirA ligase at the C-terminal biotin acceptor peptide tag); assay: SPR (Biacore T100, 25 C), biotinylated CD47 captured on SA chip, SIRPα variant in solution, 1:1 Langmuir model
T1 construct: range 19-135; Captured on a Biacore SA chip for SPR; C15G is counted on the mature domain (1-117), not on the precursor; also called immobilized CD47
Description: SPR experiments were conducted on a Biacore T100 instrument at 25° C. Experiments used a Biacore SA sensor chip (GE Healthcare) to capture biotinylated CD47 at a surface density of approximately 150 RU. An unrelated biotinylated protein was immobilized as a reference surface for the SA sensor chip with matching RU to the experimental surface. Serial dilutions of unbiotinylated SIRPα variants in the running buffer [1×HBS-P (GE Healthcare)] were flowed over the chip at a rate of 50 μL/min. CD47 was regenerated using three 30 second injections of 2M MgCl₂. Data was analyzed using the Biacore T100 evaluation software version 2.0 with a 1:1 Langmuir binding model.
Experiments were conducted with a Biacore T100 at 25° C. Protein concentrations were quantified by 280 nm absorbance with a Nanodrop2000 spectrometer (Thermo Scientific). A Biacore SA sensor chip (GE Healthcare) was used to capture biotinylated CD47 (Rₘₐₓ ˜150 RU). An unrelated biotinylated protein was immobilized with an RU value matching that of the […] to control for nonspecific binding. Measurements were made with serial dilutions of the SIRPα variants in HBS-P+ buffer (GE Healthcare). The CD47 surface was regenerated by three 60 second injections of 2 M MgCl₂. All data were analyzed with the Biacore T100 evaluation software version 2.0 with a 1:1 Langmuir binding model.

[5] = target: T2, human CD47 on the surface of cancer cells (Raji, Jurkat, DLD-1) (human, UniProt Q08722 19-323); assay: flow cytometry on Jurkat cells, competition with Alexa Fluor 647 wild-type SIRPα tetramer (50 nM per paragraph 133)
T2 construct: whole, on cells; also called cell-surface CD47; CD47 on cancer cells
Description: (§1) GFP+ Jurkat cells were washed in PBS then incubated with titrating concentrations of biotinylated SIRPα variants for 30 minutes on ice. Wild-type SIRPα tetramer was pre-formed by incubating a 4:1 molar ratio of biotinylated wild-type SIRPα with streptavidin for 15 minutes on ice. […] Cells were washed twice then analyzed for SIRPα variant binding by flow cytometry using an Accuri C6 flow cytometer. To assess blocking of wild-type SIRPα to cD47, 50 nM wild-type SIRPα tetramer was incubated with titrating concentrations of CD47 blocking agents for 30 minutes on ice. Anti-CD47 clone B6H12 (eBioscience) was used as a positive control for blocking. Data were analyzed using GraphPad Prism 5. Maximal SIRPα variant binding represents the percentage of the maximal mean fluorescence intensity measured for each variant.

[6] = target: T2, human CD47 on the surface of cancer …; assay: flow cytometry on Raji cells, competition with 100 nM Alexa Fluor 647 WT SIRPα tetramer
[7] = target: T3, mouse CD47 displayed on the surface of yeast (mouse, UniProt Q61735 19-133, limits assumed); assay: flow cytometry on yeast displaying mouse CD47
T3 sequence (looked up): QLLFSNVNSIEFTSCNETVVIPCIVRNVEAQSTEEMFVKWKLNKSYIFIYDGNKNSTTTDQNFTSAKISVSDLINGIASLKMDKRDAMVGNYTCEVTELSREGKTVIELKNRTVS

[8] = target: T4, mouse CD47 on mouse cells (CT26 colon cancer cells; mouse blood cells) (mouse, UniProt Q61735 19-303); assay: flow cytometry on mouse CT26 colon cancer cells
T4 construct: whole, on cells
T4 sequence (looked up): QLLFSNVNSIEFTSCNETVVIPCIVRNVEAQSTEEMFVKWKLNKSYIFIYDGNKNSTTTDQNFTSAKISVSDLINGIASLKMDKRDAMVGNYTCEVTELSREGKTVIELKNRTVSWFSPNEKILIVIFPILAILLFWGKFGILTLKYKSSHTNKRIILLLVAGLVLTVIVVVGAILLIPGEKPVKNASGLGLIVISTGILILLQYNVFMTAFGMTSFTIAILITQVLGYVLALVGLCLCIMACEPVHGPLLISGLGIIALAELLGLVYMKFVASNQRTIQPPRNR

[9] = target: T2, human CD47 on the surface of cancer …; assay: flow cytometry on Jurkat cells, biotinylated SIRPα variant detected with Alexa Fluor 647 streptavidin
Description: as §1

[10] = target: T2, human CD47 on the surface of cancer …; assay: flow cytometry on DLD-1 cells, detection with goat anti-human IgG
Description: Varying concentrations of biotinylated SIRPα monomers, SIRPα-hlgG4 fusion proteins, or anti-CD47 antibodies were incubated with cancer cells as indicated. […] Binding of SIRPα-hlgG4 fusion proteins or anti-CD47 antibodies was detected with goat anti-human IgG antibody (Invitrogen) and was analyzed on an LSRFortessa with high-throughput sampler (BD Biosciences). Data represent the mean fluorescence intensity normalized to maximal binding for each class of reagents, and points were fit to sigmoidal dose-response curves using Prism 5 (Graphpad).

Molecule: Anti-CD47 (B6H12) (antibody)
- IC50 (read off the curve) [1]: 80 nM

Molecule: WT allele 2 (from UniProt P78324) (receptor)
- Kd [2]: 452 nM

Molecule: Fab fragments of anti-CD47 antibody clone B6H12
- IC50 (read off the curve) [3]: 100 nM

B1: FA4 (designed binder)
SIRPα d1 domain variant: EEELQIIQPDKSVSVAAGESAILHCTITSLTPVGPIQWFRGAGPARVLIYNQRQGPFPRVTTVSEGTRRENMDFSISISNITPADAGTYYCIKFRKGSPDTEVKSGAGTELSVRAKPS
notes: also called FA4 mutant d1 domain; FA4 monomer (unbiotinylated, SPR analyte)
- Kd [4]: 0.034 nM

B2: 1D4 (designed binder)
SIRPα d1 domain variant: B1 SIRPα d1 domain variant with I6V, T31I, V47E, Q54E, P56H, G66T, I92V
notes: First generation variant, unbiotinylated monomer in SPR; also called 1D4 mutant d1 domain
- Kd [4]: 11.6 nM

B3: 2A2 (designed binder)
SIRPα d1 domain variant: B1 SIRPα d1 domain variant with L4V, A21I, I27V, T31F, Q54E, P56R, F94L, V103F
notes: also called 2A2 mutant d1 domain
- Kd [4]: 0.402 nM

B4: 2A10 (designed binder)
SIRPα d1 domain variant: B1 SIRPα d1 domain variant with T31S, R68K, F94L, V103F
notes: also called 2A10 mutant d1 domain
- Kd [4]: 0.5 nM

B5: 2B5 (designed binder)
SIRPα d1 domain variant: B1 SIRPα d1 domain variant with L4I, I6V, A21V, L23I, I27V, T31F, P56R, R68K, I92V, F94V
notes: also called 2B5 mutant d1 domain
- Kd [4]: 0.423 nM

B6: 2D3 (designed binder)
SIRPα d1 domain variant: B1 SIRPα d1 domain variant with L4V, A21V, V47L, Q54E, G66T, I92V, F94L, V103F
notes: also called 2D3 mutant d1 domain
- Kd [4]: 0.847 nM

B7: 2F5 (designed binder)
SIRPα d1 domain variant: B1 SIRPα d1 domain variant with L4V, I6L, I27V, T31F, Q54E, R68K
notes: also called 2F5 mutant d1 domain
- Kd [4]: 0.276 nM

B8: FB3 (designed binder)
SIRPα d1 domain variant: B1 SIRPα d1 domain variant with T31F, V47L, G66T, R68K, I92V, V103F
notes: also called FB3 mutant d1 domain
- Kd [4]: 0.0699 nM

B9: first generation SIRPα mutant 1A5 monomer (designed binder)
chain: EEEVQVIQPDKSVSVAAGESAILHCTLTSLIPVGPIQWFRGAGPARVLIYNQRQGHFPRVTTVSEGTRRENMDFSISISNITPADAGTYYCIKFRKGSPDTEFKSGAGTELSVRAKPSHHHHHHHH
- Kd [4]: 3.6 nM
- IC50 (read off the curve) [5]: ~80 nM

B10: high-affinity SIRPα variant FD6 monomer (d1 domain) (designed binder)
chain: B9 chain with V6I, L27I, I31F, H56P, V63I, G66T
notes: Second generation variant of human SIRPα allele 1 d1
- Kd [4]: 0.0413 nM
- IC50 (read off the curve) [6]: ~2 nM
- IC50 (read off the curve) [5]: ~3 nM

B11: high-affinity SIRPα variant CV1 monomer (consensus variant 1, d1 domain) (designed binder)
chain: EEELQIIQPDKSVLVAAGETATLRCTITSLFPVGPIQWFRGAGPGRVLIYNQRQGPFPRVTTVSDTTKRNNMDFSIRIGNITPADAGTYYCIKFRKGSPDDVEFKSGAGTELSVRAKPSHHHHHHHH
notes: Nine consensus substitutions grafted onto wild-type SIRPα allele 2
- Kd [4]: 0.0111 nM
- EC50 (read off the curve) [7]: ~20 nM
- IC50 (read off the curve) [6]: ~0.8 nM

B12: biotinylated FD6 monomer (designed binder)
chain: EEEVQIIQPDKSVSVAAGESAILHCTITSLFPVGPIQWFRGAGPARVLIYNQRQGPFPRVTTISETTRRENMDFSISISNITPADAGTYYCIKFRKGSPDTEFKSGAGTELSVRAKPSGLNDIFEAQKIEWHEHHHHHHHH
modifications: biotinylated at the C-terminal biotin acceptor peptide tag
- EC50 (read off the curve) [8]: ~300 nM

B13: biotinylated high-affinity SIRPα variant FA4 monomer (designed binder)
chain: B12 chain with V4L, F31T, I63V, T66G, F103V
modifications: biotinylated at the C-terminal biotin acceptor peptide tag
- binding result [9]: binds

B14: FD6-hIgG4 (FD6 d1 domain fused to hinge, CH2 and CH3 of human IgG4) (Fc fusion)
chain: EEEVQIIQPDKSVSVAAGESAILHCTITSLFPVGPIQWFRGAGPARVLIYNQRQGPFPRVTTISETTRRENMDFSISISNITPADAGTYYCIKFRKGSPDTEFKSGAGTELSVRAKPSAAAPPCPPCPAPEFLGGPSVFLFPPKPKDTLMISRTPEVTCVVVDVSQEDPEVQFNWYVDGVEVHNAKTKPREEQFNSTYRVVSVLTVLHQDWLNGKEYKCKVSNKGLPSSIEKTISKAKGQPREPQVYTLPPSQEEMTKNQVSLTCLVKGFYPSDIAVEWESNGQPENNYKTTPPVLDSDGSFFLYSRLTVDKSRWQEGNVFSCSVMHEALHNHYTQKSLSLSPGK
notes: also called FD6-hlgG4; FD-hlgG4
- EC50 (read off the curve) [10]: ~5 nM
- IC50 (read off the curve) [5]: ~2 nM

B15: CV1-hIgG4 (CV1 d1 domain fused to hinge, CH2 and CH3 of human IgG4 S228P) (Fc fusion)
chain: EEELQIIQPDKSVLVAAGETATLRCTITSLFPVGPIQWFRGAGPGRVLIYNQRQGPFPRVTTVSDTTKRNNMDFSIRIGNITPADAGTYYCIKFRKGSPDDVEFKSGAGTELSVRAKPSAAAPPCPPCPAPEFLGGPSVFLFPPKPKDTLMISRTPEVTCVVVDVSQEDPEVQFNWYVDGVEVHNAKTKPREEQFNSTYRVVSVLTVLHQDWLNGKEYKCKVSNKGLPSSIEKTISKAKGQPREPQVYTLPPSQEEMTKNQVSLTCLVKGFYPSDIAVEWESNGQPENNYKTTPPVLDSDGSFFLYSRLTVDKSRWQEGNVFSCSVMHEALHNHYTQKSLSLSPGK
notes: also called CV1-hlgG4
- EC50 (read off the curve) [10]: ~4 nM
